Consider three molecules from PMC7826279 (Nucleic Acids Research, 2021).

Assay in all cases: pull-down
One assay has as its target T1, Sty1 (K49R)-His (S. pombe, UniProt Q09892 1-349, K49R).
T1 sequence (looked up): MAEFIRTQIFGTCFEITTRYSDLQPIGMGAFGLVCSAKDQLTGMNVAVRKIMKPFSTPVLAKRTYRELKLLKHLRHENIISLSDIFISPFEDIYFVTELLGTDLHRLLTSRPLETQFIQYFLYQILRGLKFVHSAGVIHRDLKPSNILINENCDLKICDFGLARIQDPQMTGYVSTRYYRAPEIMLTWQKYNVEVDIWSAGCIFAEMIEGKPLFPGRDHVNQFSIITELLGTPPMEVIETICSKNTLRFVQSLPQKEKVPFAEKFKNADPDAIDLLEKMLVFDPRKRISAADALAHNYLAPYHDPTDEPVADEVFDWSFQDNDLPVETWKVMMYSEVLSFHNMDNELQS

For a further assay, the target named is T2, Sty1-His (S. pombe, UniProt Q09892 1-349).
T2 sequence (looked up): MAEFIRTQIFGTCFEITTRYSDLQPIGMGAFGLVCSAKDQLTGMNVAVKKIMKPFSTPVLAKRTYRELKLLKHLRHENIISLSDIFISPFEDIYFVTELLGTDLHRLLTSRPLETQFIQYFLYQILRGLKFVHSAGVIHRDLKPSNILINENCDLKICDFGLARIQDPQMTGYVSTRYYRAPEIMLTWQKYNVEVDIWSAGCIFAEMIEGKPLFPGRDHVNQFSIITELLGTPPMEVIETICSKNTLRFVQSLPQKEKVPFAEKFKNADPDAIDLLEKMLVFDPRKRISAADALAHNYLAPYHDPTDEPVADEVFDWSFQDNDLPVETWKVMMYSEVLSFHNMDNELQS

The target in a further assay is T3, Ssu72-His (S. pombe, UniProt O42868 1-197).
T3 sequence (looked up): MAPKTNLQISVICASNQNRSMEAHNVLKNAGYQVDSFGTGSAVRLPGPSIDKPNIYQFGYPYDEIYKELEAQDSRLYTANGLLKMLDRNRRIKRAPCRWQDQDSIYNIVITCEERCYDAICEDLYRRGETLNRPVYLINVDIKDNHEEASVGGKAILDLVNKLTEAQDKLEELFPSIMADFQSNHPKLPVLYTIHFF

The next assay concerns the target phosphorylated CTD-GFP (S. pombe, UniProt P36594 1549-1751, phosphorylated (sites not told for this preparation)).

Sequence of phosphorylated CTD-GFP (P36594 1549-1751): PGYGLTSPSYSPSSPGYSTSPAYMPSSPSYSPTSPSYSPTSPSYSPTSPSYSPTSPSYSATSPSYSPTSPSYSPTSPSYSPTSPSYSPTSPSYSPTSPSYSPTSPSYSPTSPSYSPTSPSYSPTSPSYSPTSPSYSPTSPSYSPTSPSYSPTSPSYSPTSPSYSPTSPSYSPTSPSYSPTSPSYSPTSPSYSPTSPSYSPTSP

B1: GST-Rpb1-CTD (domain or fragment)
chain: not shown
On to B1, for which the binding result with Sty1 (K49R)-His and with Sty1-His was “binds” throughout.

B2: Pin1-GST (natural protein, S. pombe, UniProt O74448 1-175, looked up)
chain: MSNTGLPKPWIVKISRSRNRPYFFNTETHESLWEPPAATDMAALKKFIANELQESVTPTEASNSPKIRASHLLVKHRESRRPSSWKEEHITRSKEEARKLAEHYEQLLKSGSVSMHDLAMKESDCSSARRGGELGEFGRDEMQKPFEDAAFALKPGEISGVVETSSGFHIIQRHA
As for B2, the binding result with Ssu72-His and with phosphorylated CTD-GFP was “binds” in each case.

B3: Pin1 (S79E)-GST (natural protein, S. pombe, UniProt O74448 1-175, looked up)
chain: MSNTGLPKPWIVKISRSRNRPYFFNTETHESLWEPPAATDMAALKKFIANELQESVTPTEASNSPKIRASHLLVKHREERRPSSWKEEHITRSKEEARKLAEHYEQLLKSGSVSMHDLAMKESDCSSARRGGELGEFGRDEMQKPFEDAAFALKPGEISGVVETSSGFHIIQRHA
Consider B3, for which the binding result with phosphorylated CTD-GFP was “binds”.
